Read-outs that look alike come from different tables or passages of the source. Residues, ends and D or L forms follow the SMILES beside them. *: point of attachment. Cbz = O=C(OCc1ccccc1)*
T1: NTD of human MFSD7C (Homo sapiens, UniProt Q9UPI3)
T1 construct: Plasmid harboring GST-His-tag-SUMO-NTD (amino acids 1-84); GST-His-tag-SUMO (N, cleaved yes); made in house; host or cells: Escherichia coli Lemo21(DE3)
T1 sequence (Q9UPI3 1-84): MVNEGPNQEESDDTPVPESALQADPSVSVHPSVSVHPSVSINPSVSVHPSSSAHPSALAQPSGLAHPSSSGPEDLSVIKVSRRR

T2: HA-tagged murine MFSD7C (mouse, UniProt Q91X85 1-551)
T2 construct: Expressed by transfection in 293FT / HEK 293T cells; also called HA-MFSD7C; pCMV6-AN-3HA-MFSD7C; not shown: N-terminal HA tag from vector pCMV6-AN-3HA
T2 sequence (looked up): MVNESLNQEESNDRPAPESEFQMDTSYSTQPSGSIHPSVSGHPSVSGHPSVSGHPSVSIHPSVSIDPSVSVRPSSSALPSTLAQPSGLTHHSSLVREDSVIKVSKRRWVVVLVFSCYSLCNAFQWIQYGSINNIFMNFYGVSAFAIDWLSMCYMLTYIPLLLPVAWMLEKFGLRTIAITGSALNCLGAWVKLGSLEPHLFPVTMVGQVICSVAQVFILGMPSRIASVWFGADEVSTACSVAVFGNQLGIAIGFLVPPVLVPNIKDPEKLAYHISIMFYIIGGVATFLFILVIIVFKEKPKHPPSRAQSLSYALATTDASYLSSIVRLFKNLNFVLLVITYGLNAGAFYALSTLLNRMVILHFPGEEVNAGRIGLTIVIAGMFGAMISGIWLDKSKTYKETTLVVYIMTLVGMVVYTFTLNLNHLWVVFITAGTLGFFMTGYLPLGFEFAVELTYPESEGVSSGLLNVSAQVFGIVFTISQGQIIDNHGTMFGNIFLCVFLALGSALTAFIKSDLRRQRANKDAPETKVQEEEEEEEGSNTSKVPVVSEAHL

B1: endogenous MFSD7C of mouse bone marrow-derived macrophages (other, UniProt Q91X85 1-551, looked up)
chain: T2 sequence (looked up)
B2: FLAG-tagged murine CYC1 (other, mouse, UniProt Q9D0M3 85-325, looked up)
chain: SDLELHPPSYPWSHRGLLSSLDHTSIRRGFQVYKQVCSSCHSMDYVAYRHLVGVCYTEEEAKALAEEVEVQDGPNDDGEMFMRPGKLSDYFPKPYPNPEAARAANNGALPPDLSYIVRARHGGEDYVFSLLTGYCEPPTGVSLREGLYFNPYFPGQAIGMAPPIYTEVLEYDDGTPATMSQVAKDVATFLRWASEPEHDHRKRMGLKMLLMMGLLLPLTYAMKRHKWSVLKSRKLAYRPPK
notes: Complex III component; expressed by transfection; also called pCMV6-AC-DDK-Cyc1; not shown: C-terminal FLAG (DDK) tag
B3: FLAG-tagged murine NDUFA4 (other, mouse, UniProt Q62425 1-82, looked up)
chain: MLRQILGQAKKHPSLIPLFVFIGAGGTGAALYVMRLALFNPDVSWDRKNNPEPWNKLGPNEQYKFYSVNVDYSKLKKEGPDF
notes: Complex IV component; expressed by transfection; also called pCMV6-AC-DDK-Ndufa4; not shown: C-terminal FLAG (DDK) tag
B4: endogenous HMOX1 of mouse bone marrow-derived macrophages (enzyme, UniProt P14901 1-289, looked up)
chain: MERPQPDSMPQDLSEALKEATKEVHIQAENAEFMKNFQKGQVSREGFKLVMASLYHIYTALEEEIERNKQNPVYAPLYFPEELHRRAALEQDMAFWYGPHWQEIIPCTPATQHYVKRLHEVGRTHPELLVAHAYTRYLGDLSGGQVLKKIAQKAMALPSSGEGLAFFTFPNIDSPTKFKQLYRARMNTLEMTPEVKHRVTEEAKTAFLLNIELFEELQVMLTEEHKDQSPSQMASLRQRPASLVQDTAPAETPRGKPQISTSSSQTPLLQWVLTLSFLLATVAVGIYAM
B5: FLAG-tagged murine HMOX1 (heme oxygenase-1) (enzyme, mouse, UniProt P14901 1-289, looked up)
chain: B4 chain
notes: Expressed by transfection; also called pCMV6-AC-DDK-HMOX1; not shown: C-terminal FLAG (DDK) tag
B6: FLAG-tagged murine ATP5c1 (other, mouse, UniProt Q91VR2 26-298, looked up)
chain: ATLKDITRRLKSIKNIQKITKSMKMVAAAKYARAERELKPARVYGTGSLALYEKADIKAPEDKKKHLIIGVSSDRGLCGAIHSSVAKQMKNEVAALTAAGKEVMIVGVGEKIKGILYRTHSDQFLVSFKDVGRKPPTFGDASVIALELLNSGYEFDEGSIIFNQFKSVISYKTEEKPIFSLNTIATAETMSIYDDIDADVLQNYQEYNLANLIYYSLKESTTSEQSARMTAMDNASKNASDMIDKLTLTFNRTRQAVITKELIEIISGAAALD
notes: Complex V component; expressed by transfection; also called pCMV6-AC-DDK-ATP5c1; not shown: C-terminal FLAG (DDK) tag

Tests used:
[1] = target: endogenous human SERCA2b of THP-1 cells (human) (UniProt P16615); experiment: cell-based or functional assay
Sequence of endogenous human SERCA2b of THP-1 cells (human) (P16615 whole entry): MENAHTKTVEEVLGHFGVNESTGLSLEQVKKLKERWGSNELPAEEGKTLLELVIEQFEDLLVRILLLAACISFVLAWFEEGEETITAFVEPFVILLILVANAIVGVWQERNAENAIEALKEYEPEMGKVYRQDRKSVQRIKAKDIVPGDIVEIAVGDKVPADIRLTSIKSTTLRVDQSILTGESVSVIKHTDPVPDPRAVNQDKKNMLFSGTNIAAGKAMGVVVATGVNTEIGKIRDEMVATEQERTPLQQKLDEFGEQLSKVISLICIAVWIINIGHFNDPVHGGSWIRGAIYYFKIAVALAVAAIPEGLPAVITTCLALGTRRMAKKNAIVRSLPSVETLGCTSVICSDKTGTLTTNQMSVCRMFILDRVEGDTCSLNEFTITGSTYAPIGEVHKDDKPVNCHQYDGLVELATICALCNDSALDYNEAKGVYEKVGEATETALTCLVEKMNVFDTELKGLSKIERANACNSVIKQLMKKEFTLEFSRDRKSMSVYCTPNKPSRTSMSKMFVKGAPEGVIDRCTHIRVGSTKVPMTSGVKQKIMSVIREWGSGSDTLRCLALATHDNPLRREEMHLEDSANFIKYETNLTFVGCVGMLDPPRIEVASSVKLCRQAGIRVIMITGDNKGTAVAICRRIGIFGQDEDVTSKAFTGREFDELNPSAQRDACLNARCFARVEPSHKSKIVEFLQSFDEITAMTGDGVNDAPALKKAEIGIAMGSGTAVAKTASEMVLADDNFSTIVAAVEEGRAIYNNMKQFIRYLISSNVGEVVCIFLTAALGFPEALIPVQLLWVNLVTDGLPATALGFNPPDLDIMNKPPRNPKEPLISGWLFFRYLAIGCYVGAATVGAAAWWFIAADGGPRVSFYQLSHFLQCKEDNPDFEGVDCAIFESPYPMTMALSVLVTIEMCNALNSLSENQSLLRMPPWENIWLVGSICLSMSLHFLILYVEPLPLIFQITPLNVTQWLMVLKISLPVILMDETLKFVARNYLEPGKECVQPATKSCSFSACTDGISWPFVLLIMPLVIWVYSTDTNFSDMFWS

[2] = system: THP-1 cells; experiment: Inhibition of heme-stimulated thermogenesis (FPT) in THP-1 cells; format: cell-based, human; details: 4 μM thapsigargin 2 hours, then 40 μM heme one hour
Experimental: FIGS. 5A-5F show MFSD7C and heme regulate thermogenesis through SERCA2b in THP-1 cells. […] 30 hours later, MG132 was added into half of the cells and the other half was not treated. Another 35 hours later, some cells were treated with 40 μM heme for 1 hour before lysis. Cell lysates were immunoprecipitated with anti-FLAG antibody, and eluted, followed by anti-HA immunoprecipitation and elution. Total cell lysate and elute were subjected to Western blotting and probed with anti-SERCA2b or anti-MFSD7C antibodies. Shown are representative data from one of three experiments. […] 24 hrs later, cells were either not treated or treated with 10 μM MG132 for either 6 or 12 hours. The cells were lysed and subjected to FLAG pull-down and blotted with anti-MFSD7C, anti-SERCA2b and anti-ubiquitin antibodies. Shown are representative data from one of three experiments. […] Parental THP-1 cells were either not treated or treated with heme before lysis. Shown are representative data from one of four experiments. […]
FIGS. 16A-16F show Co-localization of MFSD7C and SERCA2b. […] Co-localization between MFSD7C and SERCA2b was quantified. […] P-values were calculated using unpaired t-test (***p<0.05). […]
In the second approach, we used fluorescent polymeric thermometer (FPT), which we synthesized in-house (see above). […] Then the fluorescence intensities were determined by a flow cytometer.

[3] = target: T1, NTD of human MFSD7C; experiment: Isothermal titration calorimetry of NTD binding to heme; details: ITC, 25° C., 3-site sequential binding model
[4] = target: T3, HP motif peptide (Homo sapiens, UniProt Q9UPI3); experiment: Isothermal titration calorimetry of HP motif peptide binding to heme (one-site model); details: synthetic 14-amino acid HP motif peptide, one-site binding model
T3 construct: a synthetic 14-amino acid HP motif peptide; made in house; host or cells: chemical solid-phase synthesis (Koch Institute Biopolymers & Proteomics Core)

[5] = system: SERCA2b; experiment: SERCA2b level and ubiquitination by pull-down and Western blotting in transfected 293T cells; format: cell-based, murine
Experimental: (§1) FIGS. 5A-5F show MFSD7C and heme regulate thermogenesis through SERCA2b in THP-1 cells. […] 30 hours later, MG132 was added into half of the cells and the other half was not treated. Another 35 hours later, some cells were treated with 40 μM heme for 1 hour before lysis. Cell lysates were immunoprecipitated with anti-FLAG antibody, and eluted, followed by anti-HA immunoprecipitation and elution. Total cell lysate and elute were subjected to Western blotting and probed with anti-SERCA2b or anti-MFSD7C antibodies. Shown are representative data from one of three experiments. […] 24 hrs later, cells were either not treated or treated with 10 μM MG132 for either 6 or 12 hours. The cells were lysed and subjected to FLAG pull-down and blotted with anti-MFSD7C, anti-SERCA2b and anti-ubiquitin antibodies. Shown are representative data from one of three experiments. […] Parental THP-1 cells were either not treated or treated with heme before lysis. Shown are representative data from one of four experiments. […] Shown are representative data from one of two experiments. […] Cells were washed and treated with 40 μM heme for one hour before flow cytometry. Representative FPT histograms from one of three experiments are shown. […] Shown are representative FPT histograms from one of three experiments. […]

[6] = target: T4, MFSD7C and SERCA2b (Mus musculus, UniProt Q91X85); experiment: Co-IP of MFSD7C and SERCA2b in transfected 293T cells; format: cell-based, murine; details: 293T cells in the presence of MG132; none co-precipitated without
T4 construct: expressed in transfected cells; called 293T
Experimental: as §1

[7] = target: T5, endogenous mouse SERCA2b (ATP2a2) (mouse, UniProt O55143 1-1044); experiment: co-IP of endogenous proteins, mouse bone marrow-derived macrophages
T5 construct: also called endogenous SERCA2b
T5 sequence (O55143 whole entry): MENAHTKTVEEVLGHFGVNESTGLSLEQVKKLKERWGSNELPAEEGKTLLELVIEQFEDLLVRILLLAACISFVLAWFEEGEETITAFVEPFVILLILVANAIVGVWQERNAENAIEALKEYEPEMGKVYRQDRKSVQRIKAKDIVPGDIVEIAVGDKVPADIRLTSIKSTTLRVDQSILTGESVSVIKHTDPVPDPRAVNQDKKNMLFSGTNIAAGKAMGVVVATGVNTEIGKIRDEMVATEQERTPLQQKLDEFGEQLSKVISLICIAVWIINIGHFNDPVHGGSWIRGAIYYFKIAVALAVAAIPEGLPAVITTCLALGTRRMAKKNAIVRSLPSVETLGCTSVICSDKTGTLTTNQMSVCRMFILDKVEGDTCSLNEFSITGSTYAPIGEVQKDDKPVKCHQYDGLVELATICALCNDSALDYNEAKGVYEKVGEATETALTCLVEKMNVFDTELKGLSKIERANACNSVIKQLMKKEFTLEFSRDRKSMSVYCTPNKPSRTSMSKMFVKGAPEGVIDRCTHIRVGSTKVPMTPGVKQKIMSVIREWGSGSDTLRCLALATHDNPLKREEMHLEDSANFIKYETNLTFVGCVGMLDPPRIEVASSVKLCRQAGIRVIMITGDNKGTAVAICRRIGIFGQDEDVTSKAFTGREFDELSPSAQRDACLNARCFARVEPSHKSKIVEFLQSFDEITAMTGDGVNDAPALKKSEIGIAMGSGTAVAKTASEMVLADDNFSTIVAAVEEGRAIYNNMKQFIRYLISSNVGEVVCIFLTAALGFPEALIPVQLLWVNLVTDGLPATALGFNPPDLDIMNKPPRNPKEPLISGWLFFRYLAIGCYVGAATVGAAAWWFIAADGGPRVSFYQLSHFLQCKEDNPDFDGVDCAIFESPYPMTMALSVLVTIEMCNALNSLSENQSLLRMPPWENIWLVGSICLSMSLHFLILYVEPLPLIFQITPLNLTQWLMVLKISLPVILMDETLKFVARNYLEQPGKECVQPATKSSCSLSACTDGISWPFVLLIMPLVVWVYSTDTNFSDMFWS

[8] = target: T2, HA-tagged murine MFSD7C; experiment: co-IP and Western blot, co-transfected 293FT cells, without heme (less or very little with 10 or 40 µM heme)
Experimental: (§2) Co-transfection and immunoprecipitation. For co-IP, HA-tagged MFSD7C was co-transfected with FLAG-tagged HMOX1 (Origene Catalog No. MR203944), CYC1, COX4I1, NDUFA4, ATP5h, ATP5c1 into 293FT cells using TransIT®-LT1 Transfection Reagent (Mirus). Thirty-six hours after transfection, the cells were lysed using cold Lysis Buffer containing 20 mM Tris-HCl (pH 7.4), 150 mM NaCl, 0.1% NP-40, 10% glycerol, proteinase inhibitor (Sigma Catalog No. 4693132001), and phosphatase inhibitors (Sigma Catalog No. 4906845001). The clear supernatants from the lysate were incubated with M2-magnetic beads conjugated with anti-FLAG antibody (Sigma Catalog No. M8823) for 2 hours at 4° C. Then the beads were washed twice and eluted by the 3× FLAG peptides (Sigma Catalog No. F4799).
(§3) To determine the effect of heme on MFSD7C interactions with ETC components, HMOX1 or SERCA2b, 293FT cells were transiently transfected with HA-tagged murine MFSD7C and FLAG-tagged murine CYC1, NDUFA4, COX4i1, ATP5h, ATP5c1, HMOX1 or SERCA2b. 35 hrs later, co-transfected cells were incubated with DMSO (vehicle) or 10 μM or 40 μM of heme for one hour before lysis. Cell lysates were precipitated with anti-HA antibody, eluted with HA peptide, further precipitated with anti-FLAG antibody, eluted with FLAG peptide, and then subjected to Western blotting with anti-HA and anti-FLAG antibodies. Cells were treated with proteasome inhibitor MG132 for co-IP between MFSD7C and SERCA2b.

[9] = target: B1; experiment: co-IP of endogenous proteins, mouse bone marrow-derived macrophage lysate
[10] = target: T2, HA-tagged murine MFSD7C; experiment: co-IP and Western blot, co-transfected 293FT cells, with or without 10 or 40 µM heme
Experimental: as §2
as §3, with “Cells were treated with proteasome inhibitor MG132 for co-IP between MFSD7C and SERCA2b.” left out

How did the Pearson's correlation coefficient value (co-localization, THP-1 cells after 40 µM heme for 1 hour) [1] turn out when “endogenous human MFSD7C of THP-1 cells (from UniProt Q9UPI3 1-526)” was run?
The Pearson's correlation coefficient value (co-localization, THP-1 cells after 40 µM heme for 1 hour) was 0.67.

What about the Pearson's correlation coefficient value (co-localization, confocal microscopy of THP-1 cells) [1] of the same molecule?
Its Pearson's correlation coefficient value (co-localization, confocal microscopy of THP-1 cells) is 0.89.

With C/C=C(/C)C(=O)O[C@H]1C(C)=C2[C@H]([C@@H]1OC(=O)CCCCCCC)[C@@](C)(OC(C)=O)C[C@H](OC(=O)CCC)[C@@]1(O)[C@H]2OC(=O)[C@@]1(C)O [thapsigargin] as the molecule, how does the heme-stimulated thermogenesis [2] read?
Its heme-stimulated thermogenesis is “mostly inhibited”.

Which results are given for C=CC1=C(C)C2=Cc3c(C=C)c(C)c4[n]3[Fe][n]3c(c(C)c(CCC(=O)O)c3=CC3=NC(=C4)C(C)=C3CCC(=O)O)=CC1=N2 [heme]?
Kd ([3]; two strong of three heme sites on NTD, read-out: KD, two strong binding sites): ~1000 nM; Kd ([3]; weaker of three heme sites on NTD, read-out: KD, one weaker site): ~220000 nM; Kd [4]: ~1000 nM

How did the “full-length and ubiquitinated SERCA2b precipitated” value ([5]; 10 μM MG132 for 6 or 12 hours, longer treatment) turn out when CC(C)C[C@@H](C=O)NC(=O)[C@H](CC(C)C)NC(=O)[C@H](CC(C)C)NC(=O)OCc1ccccc1 [MG132] (Cbz-Leu-Leu-Leu-aldehyde) was run?
Its value is “more full-length and ubiquitinated SERCA2b was precipitated”.

What about the “level of SERCA2b detected” value ([5]; presence vs absence of MG132) of the same molecule?
Its value is “significantly higher level of SERCA2b was detected”.

And the “SERCA2b co-precipitated with MFSD7C” value [6]?
The value was “an appreciable level was co-precipitated with MFSD7C”.

Does B1 bind [7]?
Result: binds

Does B2 bind [8]?
Result: binds

Does B3 bind [8]?
Result: binds

Does B4 bind [9]?
Result: binds

Does B5 bind [10]?
Result: binds

Does B6 bind [8]?
Result: binds
